Tested on: Human sebocytes
Assay: Neutral fat detection (Nile red staining, fluorescence intensity) in linoleic acid-induced sebocytes
Type: cell-based
Settings: for fluorescence intensity (lipid content, Nile red): FIG. 1 D, two days, negative control about 1.0
Procedure: Human sebocytes (Cat. No. 36079-01, Celprogen, Torrance, Calif., USA) were cultured in Dulbecco's Modified Eagle Medium (DMEM): Nutrient Mixture F-12 (DMEM/F12) purchased from Thermo Fisher Scientific Limited (Barrington, Ill., USA), 10% fetal bovine serum (FBS) purchased from Gibco, Grand Island, N.Y., USA and penicillin/streptomycin (100 IU/50 […]), incubated at 37° C. in the 5% CO2 atmosphere.
Human sebocytes were implanted in 24- or 96-well plates. After 24 hours of culture, the cells were divided into a negative control group, a positive control group and an experimental group. […] The treated human sebocytes were cultured for two days. Human sebocytes were fixed with 4% formaldehyde at room temperature. After 60 minutes of fixation, the cells were washed with PBS and stained with Nile Red solution (1 μg/ml in PBS) at 37° C. for 15 minutes. Next, the cells were washed and observed under a fluorescent microscope. Fluorescence intensity is measured with fluorometer Spectra Max i3.

B1: lactoferrin (protein)
chain: APRKNVRWCTISQPEWFKCRRWQWRMKKLGAPSITCVRRAFALECIRAIAEKKADAVTLDGGMVFEAGRDPYKLRPVAAEIYGTKESPQTHYYAVAVVKKGSNFQLDQLQGRKSCHTGLGRSAGWIIPMGILRPYLSWTESLEPLQGAVAKFFSASCVPCIDRQAYPNLCQLCKGEGENQCACSSREPYFGYSGAFKCLQDGAGDVAFVKETTVFENLPEKADRDQYELLCLNNSRAPVDAFKECHLAQVPSHAVVARSVDGKEDLIWKLLSKAQEKFGKNKSRSFQLFGSPPGQRDLLFKDSALGFLRIPSKVDSALYLGSRYLTTLKNLRETAEEVKARYTRVVWCAVGPEEQKKCQQWSQQSGQNVTCATASTTDDCIVLVLKGEADALNLDGGYIYTAGKCGLVPVLAENRKSSKHSSLDCVLRPTEGYLAVAVVKKANEGLTWNSLKDKKSCHTAVDRTAGWNIPMGLIVNQTGSCAFDEFFSQSCAPGADPKSRLCALCAGDDQGLDKCVPNSKEKYYGYTGAFRCLAEDVGDVAFVKNDTVWENTNGESTADWAKNLNREDFRLLCLDGTRKPVTEAQSCHLAVAPNHAVVSRSDRAAHVKQVLLHQQALFGKNGKNCPDKFCLFKSETKNLLFNDNTECLAKLGGRPTYEEYLGTEYVTAIANLKKCSTSPLLEACAFLTR
modifications: bovine lactoferrin
lipid content reduced compared with positive control group (LA) (FIG. 1, 0.1 mM LA + 100 to 400 μg/mL lactoferrin): 25%
fluorescence intensity (lipid content, Nile red) (0.1 mM LA + 100 μg/mL lactoferrin): about 1.5
fluorescence intensity (lipid content, Nile red) (0.1 mM LA + 200 μg/mL lactoferrin): about 1.5
fluorescence intensity (lipid content, Nile red) (0.1 mM LA + 400 μg/mL lactoferrin): about 1.5
concentration dependence of inhibition of LA-induced lipid content (FIGS. 1-4, lactoferrin 100-400 μg/mL, peptides 25-100 μg/mL): dose-dependent manner

From US20220362348A1, “LACTOFERRIN, DERIVED PEPTIDE THEREOF AND METHOD THEREOF FOR INHIBITING AND/OR ALLEVIATING LIPID SYNTHESIS” (RENORIGIN INNOVATION INSTITUTE CO., LTD., priority 2021, published 2022)
